We go through eleven molecules from EP2155781B1.

The target in assay [1] is adrenomedullin receptors in the lungs of dogs (binding profile of the AM1 receptor, CRLR+RAMP2) (dog). In words: displacement of iodine-marked hAM in dog lungs.
Assay [2] has the same target. Kind of assay: cell-based or functional assay.

No end group written: not given here.

In the case of “human adrenomedullin hAM(1-52), cyclic (peptide)”, the IC50 (usually the point on the concentration scale where inhibition reaches its midpoint) in assay [1] is 0.055 nM. This counts as picomolar.

In assay [2], “CGRP (Phoenix Pharmaceuticals) (peptide)” returned a mean single-pass pulmonary extraction of 125I-rAM(1-50) in dogs after CGRP (100 nmol) of 40.6% and a mean single-pass pulmonary extraction of 125I-rAM(1-50) in dogs, control before CGRP of 44.6%.

Molecule “125I-rAM(1-50), 125I labelled rat adrenomedullin (from UniProt P43145 94-143) (peptide)” registered a mean single-pass pulmonary extraction of 125I-rAM(1-50) in dogs in vivo (indicator dilution), baseline in assay [2] of 36.4%.

In the case of “hCGRP (from UniProt P06881 83-119) (peptide)”, the IC50 in assay [1] is 440 nM.

Turning to “unlabelled rAM(1-50) (from UniProt P43145 94-143) (peptide)”, in assay [2], the mean single-pass pulmonary extraction of 125I-rAM(1-50) in dogs after administration of unlabelled rAM(1-50) (100 nmol) was determined as 21.9%.

Molecule “linear human adrenomedullin hAM(1-52) (peptide)” showed an IC50 in assay [1] of 7.1 nM.

For “N-terminal acetylated human adrenomedullin (peptide)”, the IC50 in assay [1] is 0.041 nM.

For the molecule TQAQLLRVGCVLGTCQVQNLSHRLWQLMGPAGRQDSAPVDPSSPHSY (peptide, UniProt Q7Z4H4 101-147, looked up) [hAM2], in assay [1], the IC50 turned out to be 480 nM.

As to TVQKLAHQIYQFTDKDKDNVAPRSKISPQGY-NH2 [hAM(22-52)], the IC50 in assay [1] stood at 810 nM. In assay [2], this molecule came in with a mean single-pass pulmonary extraction of 125I-rAM(1-50) in dogs after hAM(22-52) (100 nmol) of 31.4% and a mean single-pass pulmonary extraction of 125I-rAM(1-50) in dogs before hAM(22-52) of 40%.

The molecule SFGCRFGTCTVQKLAHQIYQFTDKDKDNVAPRSKISPQGY-NH2 (ends and bridges not checked) [hAM(13-52)] came in with an IC50 in assay [1] of 34 nM.

In assay [1], QVQNLSHRLWQLMGPAGRQDSAPVDPSSPHSY (peptide, UniProt Q7Z4H4 116-147, looked up, ends and bridges not checked) [hAM2(16-47)] came in with an IC50 of 980 nM.
